Publication PMC9352680, “A comprehensive thermodynamic model for RNA binding by the Saccharomyces cerevisiae Pumilio protein PUF4”

T1: PUF4 RNA-binding domain (Saccharomyces cerevisiae, UniProt P25339 537-888)
T1 sequence: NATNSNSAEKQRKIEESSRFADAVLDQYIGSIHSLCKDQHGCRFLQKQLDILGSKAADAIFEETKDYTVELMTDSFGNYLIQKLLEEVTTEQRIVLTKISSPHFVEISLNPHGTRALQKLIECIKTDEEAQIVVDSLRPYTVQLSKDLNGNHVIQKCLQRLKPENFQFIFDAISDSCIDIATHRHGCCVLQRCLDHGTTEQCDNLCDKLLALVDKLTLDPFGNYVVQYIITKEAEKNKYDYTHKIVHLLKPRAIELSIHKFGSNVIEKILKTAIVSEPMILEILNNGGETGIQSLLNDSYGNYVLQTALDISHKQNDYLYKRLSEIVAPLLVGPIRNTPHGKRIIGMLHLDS

B1: Id_ii_S4_P3E.2_K3.1_C3.2_[T-1G]_H3.1_A3.1_F3.1_T3.2 (ssRNA)
RNA: UUUGACAACUGAUCGUUCUUUCUCGUGUAUAUAUAUUCUUUCUCGAUCAGUUGUCUUU
B2: Id_ii_S4_P3E.2_K3.1_C3.2_[T-1C]_H3.1_A3.1_F3.1_T3.2_[A10T] (ssRNA)
RNA: UUUGACAACUGAUCGUUCUUUCUCCUGUAUAUAUUUUCUUUCUCGAUCAGUUGUCUUU
B3: Id_ii_S4_P3E.2_K3.1_C3.2_[T-1C]_H3.1_A3.1_F3.1_T3.2 (ssRNA)
RNA: UUUGACAACUGAUCGUUCUUUCUCCUGUAUAUAUAUUCUUUCUCGAUCAGUUGUCUUU
B4: Id_ii_S4_P3E.3_K3.2_C3.2_[C-2G]_H3.2_A3.1_F3.1_T3.2_[T9A]_[A10G] (ssRNA)
RNA: UUUGACAACUGAUCGUUCUUUCUGUUAUAUAUAAGUUCUUUCUCGAUCAGUUGUCUUU
B5: Id_ii_S4_P3E.3_K3.2_C3.2_[C-2G]_[T-1C]_H3.2_A3.1_F3.1_T3.2_[A10T] (ssRNA)
RNA: UUUGACAACUGAUCGUUCUUUCUGCUAUAUAUAUUUUCUUUCUCGAUCAGUUGUCUUU
B6: Id_ii_S4_P3E.3_K3.2_C3.2_[C-2T]_H3.2_A3.1_F3.1_T3.2_[T9C] (ssRNA)
RNA: UUUGACAACUGAUCGUUCUUUCUUUUAUAUAUACAUUCUUUCUCGAUCAGUUGUCUUU
B7: Id_ii_S4_P3E.2_K3.1_C3.2_[T-1A]_H3.1_A3.1_F3.1_T3.2_[T9A] (ssRNA)
RNA: UUUGACAACUGAUCGUUCUUUCUCAUGUAUAUAAAUUCUUUCUCGAUCAGUUGUCUUU
B8: Id_ii_S4_P3E.3_K3.2_C3.2_[C-2T]_[T-1A]_H3.2_A3.1_F3.1_T3.2_[A10C] (ssRNA)
RNA: UUUGACAACUGAUCGUUCUUUCUUAUAUAUAUAUCUUCUUUCUCGAUCAGUUGUCUUU
B9: Id_ii_S4_P3E.2_K3.1_C3.2_[T-1A]_H3.1_A3.1_F3.1_T3.2_[T9G]_[A10C] (ssRNA)
RNA: UUUGACAACUGAUCGUUCUUUCUCAUGUAUAUAGCUUCUUUCUCGAUCAGUUGUCUUU
B10: Id_ii_S4_P3E.3_K3.2_C3.2_[C-2G]_[T-1G]_H3.2_A3.1_F3.1_T3.2_[T9A]_[A10C] (ssRNA)
RNA: UUUGACAACUGAUCGUUCUUUCUGGUAUAUAUAACUUCUUUCUCGAUCAGUUGUCUUU
B11: Id_ii_S4_P3E.3_K3.2_C3.2_[C-2G]_[T-1G]_H3.2_A3.1_F3.1_T3.2_[A10G] (ssRNA)
RNA: UUUGACAACUGAUCGUUCUUUCUGGUAUAUAUAUGUUCUUUCUCGAUCAGUUGUCUUU
B12: Id_ii_S4_P3E.2_K3.1_C3.2_[T-1C]_H3.1_A3.1_F3.1_T3.2_[T9C]_[A10C] (ssRNA)
RNA: UUUGACAACUGAUCGUUCUUUCUCCUGUAUAUACCUUCUUUCUCGAUCAGUUGUCUUU
B13: Id_ii_S4_P3E.2_K3.1_C3.2_[T-1C]_H3.1_A3.1_F3.1_T3.2_[T9C]_[A10T] (ssRNA)
RNA: UUUGACAACUGAUCGUUCUUUCUCCUGUAUAUACUUUCUUUCUCGAUCAGUUGUCUUU
B14: Id_ii_S4_P3E.3_K3.2_C3.2_[C-2T]_[T-1C]_H3.2_A3.1_F3.1_T3.2_[T9A] (ssRNA)
RNA: UUUGACAACUGAUCGUUCUUUCUUCUAUAUAUAAAUUCUUUCUCGAUCAGUUGUCUUU
B15: Id_ii_S4_P3E.3_K3.2_C3.2_[C-2G]_[T-1G]_H3.2_A3.1_F3.1_T3.2_[T9A] (ssRNA)
RNA: UUUGACAACUGAUCGUUCUUUCUGGUAUAUAUAAAUUCUUUCUCGAUCAGUUGUCUUU
B16: Id_ii_S4_P3E.2_K3.1_C3.2_[T-1C]_H3.1_A3.1_F3.1_T3.2_[A10G] (ssRNA)
RNA: UUUGACAACUGAUCGUUCUUUCUCCUGUAUAUAUGUUCUUUCUCGAUCAGUUGUCUUU
B17: Id_ii_S4_P3E.3_K3.2_C3.2_[C-2T]_[T-1C]_H3.2_A3.1_F3.1_T3.2_[A10T] (ssRNA)
RNA: UUUGACAACUGAUCGUUCUUUCUUCUAUAUAUAUUUUCUUUCUCGAUCAGUUGUCUUU
B18: Id_ii_S4_P3E.2_K3.1_C3.2_[T-1C]_H3.1_A3.1_F3.1_T3.2_[T9G]_[A10T] (ssRNA)
RNA: UUUGACAACUGAUCGUUCUUUCUCCUGUAUAUAGUUUCUUUCUCGAUCAGUUGUCUUU
B19: Id_ii_S4_P3E.3_K3.2_C3.2_[C-2T]_[T-1A]_H3.2_A3.1_F3.1_T3.2_[T9A]_[A10C] (ssRNA)
RNA: UUUGACAACUGAUCGUUCUUUCUUAUAUAUAUAACUUCUUUCUCGAUCAGUUGUCUUU
B20: Id_ii_S4_P3E.2_K3.1_C3.2_[T-1A]_H3.1_A3.1_F3.1_T3.2 (ssRNA)
RNA: UUUGACAACUGAUCGUUCUUUCUCAUGUAUAUAUAUUCUUUCUCGAUCAGUUGUCUUU
B21: Id_ii_S4_P3E.3_K3.2_C3.2_[C-2T]_H3.2_A3.1_F3.1_T3.2_[T9G]_[A10T] (ssRNA)
RNA: UUUGACAACUGAUCGUUCUUUCUUUUAUAUAUAGUUUCUUUCUCGAUCAGUUGUCUUU
B22: Id_ii_S4_P3E.3_K3.2_C3.2_[C-2T]_[T-1C]_H3.2_A3.1_F3.1_T3.2_[T9C]_[A10G] (ssRNA)
RNA: UUUGACAACUGAUCGUUCUUUCUUCUAUAUAUACGUUCUUUCUCGAUCAGUUGUCUUU
B23: Id_ii_S4_P3E.3_K3.2_C3.2_[C-2G]_H3.2_A3.1_F3.1_T3.2 (ssRNA)
RNA: UUUGACAACUGAUCGUUCUUUCUGUUAUAUAUAUAUUCUUUCUCGAUCAGUUGUCUUU
B24: Id_ii_S4_P3E.3_K3.2_C3.2_[C-2T]_[T-1C]_H3.2_A3.1_F3.1_T3.2_[T9A]_[A10T] (ssRNA)
RNA: UUUGACAACUGAUCGUUCUUUCUUCUAUAUAUAAUUUCUUUCUCGAUCAGUUGUCUUU
B25: Id_ii_S4_P3E.2_K3.1_C3.2_[T-1C]_H3.1_A3.1_F3.1_T3.2_[T9G]_[A10C] (ssRNA)
RNA: UUUGACAACUGAUCGUUCUUUCUCCUGUAUAUAGCUUCUUUCUCGAUCAGUUGUCUUU
B26: Id_ii_S4_P3E.3_K3.2_C3.2_[C-2G]_H3.2_A3.1_F3.1_T3.2_[T9C]_[A10T] (ssRNA)
RNA: UUUGACAACUGAUCGUUCUUUCUGUUAUAUAUACUUUCUUUCUCGAUCAGUUGUCUUU
B27: Id_ii_S4_P3E.3_K3.2_C3.2_[C-2G]_H3.2_A3.1_F3.1_T3.2_[A10T] (ssRNA)
RNA: UUUGACAACUGAUCGUUCUUUCUGUUAUAUAUAUUUUCUUUCUCGAUCAGUUGUCUUU
B28: Id_ii_S4_P3E.3_K3.2_C3.2_[C-2T]_[T-1A]_H3.2_A3.1_F3.1_T3.2_[T9C] (ssRNA)
RNA: UUUGACAACUGAUCGUUCUUUCUUAUAUAUAUACAUUCUUUCUCGAUCAGUUGUCUUU
B29: Id_ii_S4_P3E.2_K3.1_C3.2_H3.1_A3.1_F3.1_T3.2_[A10T] (ssRNA)
RNA: UUUGACAACUGAUCGUUCUUUCUCUUGUAUAUAUUUUCUUUCUCGAUCAGUUGUCUUU
B30: Id_ii_S4_P3E.3_K3.2_C3.2_[C-2G]_[T-1G]_H3.2_A3.1_F3.1_T3.2_[A10T] (ssRNA)
RNA: UUUGACAACUGAUCGUUCUUUCUGGUAUAUAUAUUUUCUUUCUCGAUCAGUUGUCUUU
B31: Id_ii_S4_P3E.3_K3.2_C3.2_[C-2T]_[T-1C]_H3.2_A3.1_F3.1_T3.2_[T9C] (ssRNA)
RNA: UUUGACAACUGAUCGUUCUUUCUUCUAUAUAUACAUUCUUUCUCGAUCAGUUGUCUUU
B32: Id_ii_S4_P3E.2_K3.1_C3.2_H3.1_A3.1_F3.1_T3.2_[T9A] (ssRNA)
RNA: UUUGACAACUGAUCGUUCUUUCUCUUGUAUAUAAAUUCUUUCUCGAUCAGUUGUCUUU
B33: Id_ii_S4_P3E.3_K3.2_C3.2_[C-2G]_[T-1C]_H3.2_A3.1_F3.1_T3.2_[T9C]_[A10T] (ssRNA)
RNA: UUUGACAACUGAUCGUUCUUUCUGCUAUAUAUACUUUCUUUCUCGAUCAGUUGUCUUU
B34: Id_ii_S4_P3E.3_K3.2_C3.2_[C-2T]_H3.2_A3.1_F3.1_T3.2_[A10T] (ssRNA)
RNA: UUUGACAACUGAUCGUUCUUUCUUUUAUAUAUAUUUUCUUUCUCGAUCAGUUGUCUUU
B35: Id_ii_S4_P3E.3_K3.2_C3.2_[C-2T]_[T-1G]_H3.2_A3.1_F3.1_T3.2_[T9A]_[A10T] (ssRNA)
RNA: UUUGACAACUGAUCGUUCUUUCUUGUAUAUAUAAUUUCUUUCUCGAUCAGUUGUCUUU
B36: Id_ii_S4_P3E.2_K3.1_C3.2_[T-1C]_H3.1_A3.1_F3.1_T3.2_[T9A]_[A10T] (ssRNA)
RNA: UUUGACAACUGAUCGUUCUUUCUCCUGUAUAUAAUUUCUUUCUCGAUCAGUUGUCUUU
B37: Id_ii_S4_P3E.2_K3.1_C3.2_[T-1C]_H3.1_A3.1_F3.1_T3.2_[T9C]_[A10G] (ssRNA)
RNA: UUUGACAACUGAUCGUUCUUUCUCCUGUAUAUACGUUCUUUCUCGAUCAGUUGUCUUU
B38: If_S4_P3E.2_K3.1_C3.2_H3.1_A3.1_F3.1_T3.2 (ssRNA)
RNA: UUUGACAACUGAUCGUUCUUUCUCUUGUAUAUAUAUUCUUUCUCGAUCAGUUGUCUUU
B39: Id_ii_S4_P3E.3_K3.2_C3.2_[C-2T]_[T-1G]_H3.2_A3.1_F3.1_T3.2_[T9G]_[A10C] (ssRNA)
RNA: UUUGACAACUGAUCGUUCUUUCUUGUAUAUAUAGCUUCUUUCUCGAUCAGUUGUCUUU
B40: Id_ii_S4_P3E.2_K3.1_C3.2_[T-1A]_H3.1_A3.1_F3.1_T3.2_[T9A]_[A10C] (ssRNA)
RNA: UUUGACAACUGAUCGUUCUUUCUCAUGUAUAUAACUUCUUUCUCGAUCAGUUGUCUUU
B41: Id_ii_S4_P3E.3_K3.2_C3.2_[C-2T]_[T-1C]_H3.2_A3.1_F3.1_T3.2_[A10C] (ssRNA)
RNA: UUUGACAACUGAUCGUUCUUUCUUCUAUAUAUAUCUUCUUUCUCGAUCAGUUGUCUUU
B42: Id_ii_S4_P3E.2_K3.1_C3.2_H3.1_A3.1_F3.1_T3.2_[T9G]_[A10T] (ssRNA)
RNA: UUUGACAACUGAUCGUUCUUUCUCUUGUAUAUAGUUUCUUUCUCGAUCAGUUGUCUUU
B43: Id_ii_S4_P3E.3_K3.2_C3.2_[C-2G]_[T-1C]_H3.2_A3.1_F3.1_T3.2_[T9A]_[A10C] (ssRNA)
RNA: UUUGACAACUGAUCGUUCUUUCUGCUAUAUAUAACUUCUUUCUCGAUCAGUUGUCUUU

target: T1, PUF4 RNA-binding domain; test: Mg; RNA-MaP; 20 mM Na-HEPES pH 7.4, 30 mM KOAc, 0.75 mM MgCl2, 0.1% Tween-20, 5% glycerol, 0.1 mg/mL BSA, 2 mM DTT; 25 C; 0.0125-409.6 nM protein; details: tags: N-His6-TEV cleaved; C-SNAP kept, Cy3B-labelled; label: tethered on chip by stalled RNA polymerase

Binder	Kd [nM]
B1	1.4
B2	1.16
B3	0.873
B4	304
B5	149
B6	220
B7	5.28
B8	108
B9	2.75
B10	2160
B11	562
B12	2.05
B13	1.47
B14	472
B15	676
B16	1.76
B17	38
B18	1.77
B19	326
B20	1.73
B21	575
B22	467
B23	43.8
B24	151

Binder	Kd [nM]
B25	2
B26	146
B27	16.8
B28	94.6
B29	1.14
B30	234
B31	252
B32	3.34
B33	557
B34	70
B35	1.81
B36	1.23
B37	6.54
B38	0.951
B39	2.89
B40	4.63
B41	120
B42	3.88
B43	1200
UCUCUUCGUAUUGUUAUCUCUU (ssRNA) [Ib_S1_P5E.1_K5.1_C5.1_H5.1_[T1C]_A5.1_[A7G]_F5.1_T5.1]	> 2300
UCUCUUCGUAUCAUUAUCUCUU (ssRNA) [Ib_S1_P5E.1_K5.1_C5.1_H5.1_[T1C]_A5.1_[T6C]_F5.1_T5.1]	1380
UCUCUUAGUACUAUUAUCUCUU (ssRNA) [Ib_S1_P5E.1_K5.1_C5.1_H5.1_[T1A]_A5.1_[T5C]_F5.1_T5.1]	1400
UCUCUUCGUAAUAUUAUCUCUU (ssRNA) [Ib_S1_P5E.1_K5.1_C5.1_H5.1_[T1C]_A5.1_[T5A]_F5.1_T5.1]	2020
UCUCUUAGUAUAAUUAUCUCUU (ssRNA) [Ib_S1_P5E.1_K5.1_C5.1_H5.1_[T1A]_A5.1_[T6A]_F5.1_T5.1]	1030
